Where a chain is given by its changes, count along the chain named.
Tests used:
Mouse Id2: Histidine [1] = target: T1, Mouse Id2: Histidine (mouse, UniProt P41136 1-134, limits assumed); assay: ELISA, positive control (stated to be BCH-4/6-1) 0.50 µg/ml
T1 construct: Fusion protein made in E. coli from vector pGW07; also called m-Id2: His; not shown: His tag
T1 sequence (looked up): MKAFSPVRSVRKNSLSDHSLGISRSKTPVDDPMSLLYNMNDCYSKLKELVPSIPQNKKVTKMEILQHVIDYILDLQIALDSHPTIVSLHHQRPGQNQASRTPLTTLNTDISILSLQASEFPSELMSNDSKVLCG
Description: (§1) 1. Dispense 100 μL of antibody diluent, diluted rabbit monoclonal human Id3, and mouse/human Id3 hybridoma supernatants into appropriate wells. […] 2. Incubate at room temperature with mechanical shaking at 750 rpm for 90 minutes. [0165] 3. Remove the incubation mixture by flicking plate content into an appropriate waste container followed by rinsing the wells 5 times with distilled water. [0166] 4. Strike the wells sharply onto absorbent paper or paper towels to remove all residual water droplets. [0167] 5. Dispense 100 μL of 1:50,000 Goat Anti-Rabbit IgG-HRP Conjugate Reagent into each well. Gently mix for 5 seconds. [0168] 6. Incubate at room temperature with mechanical shaking at 750 rpm for 90 minutes. [0169] 7. Repeat procedures 3 and 4. [0170] 8. Dispense 100 μL of TMB Reagent into each well. Gently mix for 5 seconds. [0171] 9. Incubate at room temperature with mechanical shaking at 750 rpm for 20 minutes. […] 10. Add 100 μL of Stop Solution (1N HCl) into each well. [0173] 11. Gently mix for 10 seconds to ensure a complete mixing. [0174] 12. Read optical density at A450 nm.
(§2) The materials and method are the same as those described in Example 9 except the following.
(§3) Rabbit monoclonal anti-mouse Id3, hybridoma supernatant was used as the test antibody. Protein G purified, rabbit monoclonal anti-mouse/human Id3 antibody, BCH-4/6-1, 0.92 mg/ml in 0.25% BSA was used as positive controls.

Mouse Id3: Histidine [2] = target: T2, Mouse Id3: Histidine (mouse, UniProt P41133 1-119); assay: as above
T2 construct: Fusion protein made in E. coli from vector pGW07; also called m-Id3: His; Mouse Id3 (coated wells); not shown: His tag
T2 sequence: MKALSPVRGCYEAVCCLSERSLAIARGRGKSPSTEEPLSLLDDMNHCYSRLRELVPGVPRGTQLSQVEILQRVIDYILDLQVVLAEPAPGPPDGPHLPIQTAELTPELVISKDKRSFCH
Description: as §1, §2, §3

Human Id2: Histidine [3] = target: T3, Human Id2: Histidine (human, UniProt Q02363 1-134, limits assumed); assay: ELISA, Ab 0.005 µg/ml
T3 construct: Fusion protein made in E. coli from vector pGW07; also called h-Id2: His; not shown: His tag
T3 sequence (looked up): T1 sequence (looked up) with T60S, V131A

Mouse Id3: Histidine [4] = target: T2, Mouse Id3: Histidine; assay: ELISA, Ab 0.005 µg/ml
Human Id3: Histidine [5] = target: T4, Human Id3: Histidine (human, UniProt Q02535 1-119 at identity 1.00)); assay: ELISA, Ab 0 µg/ml (blank)
T4 construct: Fusion protein made in E. coli from vector pGW07; also called h-Id3: His; Human Id3 (coated wells); not shown: His tag
T4 chain: T2 sequence with S31G, S33A, T34A, T105A, K112N

Mouse Id1: Histidine [6] = target: T5, Mouse Id1: Histidine (mouse, UniProt P20067-2 1-148, limits assumed); assay: ELISA, Ab 0 µg/ml (blank)
T5 construct: Fusion protein made in E. coli from vector pGW07; also called m-Id1-His; not shown: His tag
T5 sequence (looked up): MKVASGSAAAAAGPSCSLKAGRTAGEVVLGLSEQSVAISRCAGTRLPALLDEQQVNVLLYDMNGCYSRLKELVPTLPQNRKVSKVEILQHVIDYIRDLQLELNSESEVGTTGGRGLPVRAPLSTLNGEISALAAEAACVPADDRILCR

Human Id2: Histidine [7] = target: T3, Human Id2: Histidine; assay: ELISA, Ab 0 µg/ml (blank)
Mouse Id2: Histidine [8] = target: T1, Mouse Id2: Histidine; assay: ELISA, Ab 0 µg/ml (blank)
Mouse Id3: Histidine [9] = target: T2, Mouse Id3: Histidine; assay: ELISA, Ab 0 µg/ml (blank)
Human Id1: Histidine [10] = target: T6, Human Id1: Histidine (human, UniProt P41134 1-155, limits assumed); assay: ELISA, Ab 0 µg/ml (blank)
T6 construct: Fusion protein made in E. coli from vector pGW07; also called h-Id1: his; not shown: His tag
T6 sequence (looked up): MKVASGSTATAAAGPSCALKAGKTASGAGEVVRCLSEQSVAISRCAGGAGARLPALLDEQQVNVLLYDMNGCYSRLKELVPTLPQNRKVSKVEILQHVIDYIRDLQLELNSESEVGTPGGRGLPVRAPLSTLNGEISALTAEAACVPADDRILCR

Human Id3: Histidine [11] = target: T4, Human Id3: Histidine; assay: ELISA, Ab 0.250 µg/ml
Mouse Id1: Histidine [12] = target: T5, Mouse Id1: Histidine; assay: ELISA, Ab 0.250 µg/ml
Human Id2: Histidine [13] = target: T3, Human Id2: Histidine; assay: ELISA, Ab 0.250 µg/ml
Mouse Id2: Histidine [14] = target: T1, Mouse Id2: Histidine; assay: ELISA, Ab 0.250 µg/ml
Mouse Id3: Histidine [15] = target: T2, Mouse Id3: Histidine; assay: ELISA, Ab 0.250 µg/ml
Human Id1: Histidine [16] = target: T6, Human Id1: Histidine; assay: ELISA, Ab 0.250 µg/ml

B1: rabbit monoclonal anti-mouse/human Id3, clone #BCH-4/#6-1 (antibody, V domains shown)
VH: QSVEESGGRLVTPGTPLTLTCTASGFSLSNVYIHWVRQAPGKGLEWIGYISDGDTARYATWAKGRFTISKTSSTTVNLKMTSLTTEDTATYFCARQGFNIWGPGTLVTVSL
VL: AVLTQTPSPVSAAVGGTVSISCQSSQSVWNNNWLSWFQQKPGQPPKLLIYETSKLESGVPSRFKGSGSGTQFTLTISDVQCDDAATYYCLGGYWTTSDNNVFGGGTEVVVK
notes: Rabbit IgG from a rabbit hybridoma; also called m/h Id3 MoAb 6-1
B1 gave an A450 (Mouse Id2: Histidine [1]) of 3.1 A450, an A450 (Mouse Id3: Histidine [2]) of 3.18 A450 and an A450 (Human Id2: Histidine [3]) of 0.076 A450. It also gave an A450 (Mouse Id3: Histidine [4]) of 0.295 A450, an A450 (Human Id3: Histidine [5]) of 0.047 A450 and an A450 (Mouse Id1: Histidine [6]) of 0.061 A450. For the same binder, the A450 (Human Id2: Histidine [7]) was 0.064 A450, the A450 (Mouse Id2: Histidine [8]) was 0.058 A450 and the A450 (Mouse Id3: Histidine [9]) was 0.048 A450. For the same binder, the A450 (Human Id1: Histidine [10]) was 0.058 A450, the A450 (Human Id3: Histidine [11]) was 2.74 A450 and the A450 (Mouse Id1: Histidine [12]) was 0.058 A450. The A450 (Human Id2: Histidine [13]) was 0.071 A450, the A450 (Mouse Id2: Histidine [14]) was 0.071 A450 and the A450 (Mouse Id3: Histidine [15]) was 3.13 A450. The A450 (Human Id1: Histidine [16]) was 0.061 A450.

Reference: patent US20070178531A1 (BIOCHECK, published 2007)
